Test results taken from US20140087995A1 (published 2014).
Numbered stars: 1 amine (or outer) side, 2 acyl side, 3 side chain; on linkers, the order of the positions; unused ones are H or OH. Bridge positions count the residues as written; N and C are the ends. Side chains are listed from the residue outwards. Ends that are not written are not given here. * marks the point of attachment. C20 diacid = O=C(O)CCCCCCCCCCCCCCCCCCC(=O)*; γGlu = O=C(O)[C@H](CCC(=O)[*:2])N[*:1]

T1: rat calcitonin receptor (rat, UniProt P32214 25-516)
T1 construct: whole, on cells; Used as membranes prepared from the transfected cells (Assay VIII); also called rCTR; rat calcitonin (a) receptor
T1 sequence (looked up): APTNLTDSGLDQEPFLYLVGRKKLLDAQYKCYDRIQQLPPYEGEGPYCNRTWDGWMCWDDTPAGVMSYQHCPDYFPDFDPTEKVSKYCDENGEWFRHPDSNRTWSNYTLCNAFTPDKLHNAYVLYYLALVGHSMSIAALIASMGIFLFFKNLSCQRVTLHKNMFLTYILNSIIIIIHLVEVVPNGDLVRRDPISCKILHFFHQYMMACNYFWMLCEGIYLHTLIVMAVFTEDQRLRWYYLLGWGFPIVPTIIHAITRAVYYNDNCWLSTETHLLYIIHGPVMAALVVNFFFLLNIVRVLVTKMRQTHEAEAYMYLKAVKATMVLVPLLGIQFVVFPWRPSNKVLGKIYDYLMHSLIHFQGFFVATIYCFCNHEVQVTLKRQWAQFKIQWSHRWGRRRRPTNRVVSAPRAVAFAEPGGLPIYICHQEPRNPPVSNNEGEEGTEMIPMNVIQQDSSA

T2: human calcitonin receptor (human, UniProt P30988 25-474)
T2 construct: whole, on cells; Used as membranes prepared from the transfected cells (Assay VII); also called hCTR; hCT
T2 sequence (looked up): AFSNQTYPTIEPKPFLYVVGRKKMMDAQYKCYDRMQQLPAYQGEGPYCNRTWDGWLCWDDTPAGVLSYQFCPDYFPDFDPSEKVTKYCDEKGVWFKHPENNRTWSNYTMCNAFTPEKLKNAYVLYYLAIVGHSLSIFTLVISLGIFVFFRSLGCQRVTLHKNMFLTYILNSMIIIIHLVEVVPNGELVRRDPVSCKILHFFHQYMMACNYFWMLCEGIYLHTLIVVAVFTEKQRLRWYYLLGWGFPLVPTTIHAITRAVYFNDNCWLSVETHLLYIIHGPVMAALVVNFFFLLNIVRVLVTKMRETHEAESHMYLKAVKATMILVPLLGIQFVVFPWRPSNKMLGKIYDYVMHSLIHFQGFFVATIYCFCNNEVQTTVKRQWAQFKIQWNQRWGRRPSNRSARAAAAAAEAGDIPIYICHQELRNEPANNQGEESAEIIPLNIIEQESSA

T3: rat amylin receptor (rat calcitonin receptor + rat RAMP 3) (rat, UniProt P32214 25-516; Q9JJ73 23-147)
T3 construct: whole, on cells; Used as membranes prepared from the transfected cells (Assay VI); also called rAmylin-R; rat amylin 3(a) receptor
T3 sequence (looked up) 1: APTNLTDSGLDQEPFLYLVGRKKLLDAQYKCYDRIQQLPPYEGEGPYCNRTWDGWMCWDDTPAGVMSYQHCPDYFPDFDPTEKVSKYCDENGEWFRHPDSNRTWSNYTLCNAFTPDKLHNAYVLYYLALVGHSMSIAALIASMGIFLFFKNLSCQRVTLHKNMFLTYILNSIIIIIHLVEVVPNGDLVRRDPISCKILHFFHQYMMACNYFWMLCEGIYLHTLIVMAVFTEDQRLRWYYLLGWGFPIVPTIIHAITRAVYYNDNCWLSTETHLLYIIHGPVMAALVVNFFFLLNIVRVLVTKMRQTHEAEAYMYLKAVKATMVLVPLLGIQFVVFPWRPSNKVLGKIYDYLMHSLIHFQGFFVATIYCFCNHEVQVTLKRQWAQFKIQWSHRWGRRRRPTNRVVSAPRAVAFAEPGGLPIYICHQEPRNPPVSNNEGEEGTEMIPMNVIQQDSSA
T3 sequence (looked up) 2: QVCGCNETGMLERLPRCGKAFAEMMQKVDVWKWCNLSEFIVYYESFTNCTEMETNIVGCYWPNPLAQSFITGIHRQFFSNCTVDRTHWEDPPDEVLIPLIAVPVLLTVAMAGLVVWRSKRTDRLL


Experiments:
rat calcitonin receptor [1] = target: T1, rat calcitonin receptor; assay: ratio of IC50 on rat calcitonin receptor (Assay VIII) to IC50 on rat amylin receptor (Assay VI)
[2] = target: T2, human calcitonin receptor; assay: ratio of IC50 on human calcitonin receptor (Assay VII) to IC50 on human amylin receptor (Assay V)
Experimental: The resulting pellet was resuspended, homogenized and centrifuged (20.000 rpm, 15 min) in a buffer containing 20 mM Na-HEPES and 0.1 mM EDTA (pH 7.4, buffer 2). The resulting pellet was resuspended in buffer 2 and protein concentration was measured (BCA protein Assay, Pierce). The homogenate was kept cold during the whole procedure. The membranes were kept at −80° C. until use. The assay was performed in a 384 well Optiplate (PerkinElmer) in a total volume of 40 ul. Membranes were mixed with SPA beads. Final concentration of membranes 35 ng/μL final and SPA beads was 0.05 mg/well. Test-compounds were dissolved in DMSO and further diluted in assay buffer (50 mM Hepes, pH 7.4, 1 mM CaCl2, 5 mM MgCl₂, 0.1% OA and 0.02% Tween20). […] The final mixture was incubated with shaking at 400 rpm for 120 min at 25° C. prior to centrifugation (1500 rpm, 10 min). Samples were analyzed on TopCounter™ (Packard). The IC₅₀ was calculated using (one site binding competition analysis) GraphPad Prism5 as a measure of receptor affinity.
Membranes were prepared in the following way; the cells were rinsed with PBS and incubated with Versene for approximately 5 min before harvesting. The cells were flushed with PBS and the cell-suspension was centrifuged for 5 min at 1000 rpm. Cells were homogenized (Ultrathurrax) in a buffer containing 20 mM Na-HEPES and 10 mM EDTA (pH 7.4) and centrifuged at 20.000 rpm for 15 min. The resulting pellet was resuspended, homogenized and centrifuged (20.000 rpm, 15 min) in a buffer containing 20 mM Na-HEPES and 0.1 mM EDTA (pH 7.4, buffer 2). The resulting pellet was resuspended in buffer 2 and protein concentration was measured (BCA protein Assay, Pierce). The homogenate was kept cold during the whole procedure. The membranes were kept at −80° C. until use. Assay was performed in a 384 well Optiplate (PerkinElmer) in a total volume of 40 ul. Membranes were mixed with SPA beads.

rat calcitonin receptor [3] = target: T1, rat calcitonin receptor; assay: SPA competition binding, displacement of 125I-calcitonin from membranes of BHK tk'ts 13 cells transfected with rat calcitonin receptor (Assay VIII)
[4] = target: T3, rat amylin receptor (rat calcitonin …); assay: SPA competition binding, displacement of 125I-rat amylin from membranes of BHK tk'ts 13 cells transfected with rat calcitonin receptor + rat RAMP 3 (Assay VI)

Row | Ratio rCT/rAmylin binding (rat calcitonin receptor [1]) | Ratio hCT/hAmylin binding [2] | IC50 (rat calcitonin receptor [3]) | IC50 [4] | Binder
1 | 72.4 | 24.8 | 9.05 nM | 0.125 nM | K([γGlu-C20 diacid])CNTATCATQRLAHFLRHSSPNFGAIPSSTPVGPNTY-NH2 (disulfide 2-7; N-terminus assumed; SMILES CC[C@H](C)[C@H](NC(=O)[C@H](C)NC(=O)CNC(=O)[C@H](Cc1ccccc1)NC(=O)[C@H](CC(N)=O)NC(=O)[C@@H]1CCCN1C(=O)[C@H](CO)NC(=O)[C@H](CO)NC(=O)[C@H](Cc1c[nH]cn1)NC(=O)[C@H](CCCNC(=N)N)NC(=O)[C@H](CC(C)C)NC(=O)[C@H](Cc1ccccc1)NC(=O)[C@H](Cc1c[nH]cn1)NC(=O)[C@H](C)NC(=O)[C@H](CC(C)C)NC(=O)[C@H](CCCNC(=N)N)NC(=O)[C@H](CCC(N)=O)NC(=O)[C@@H](NC(=O)[C@H](C)NC(=O)[C@@H]1CSSC[C@H](NC(=O)[C@@H](N)CCCCNC(=O)CC[C@H](NC(=O)CCCCCCCCCCCCCCCCCCC(=O)O)C(=O)O)C(=O)N[C@@H](CC(N)=O)C(=O)N[C@@H]([C@@H](C)O)C(=O)N[C@@H](C)C(=O)N[C@@H]([C@@H](C)O)C(=O)N1)[C@@H](C)O)C(=O)N1CCC[C@H]1C(=O)N[C@@H](CO)C(=O)N[C@@H](CO)C(=O)N[C@H](C(=O)N1CCC[C@H]1C(=O)N[C@H](C(=O)NCC(=O)N1CCC[C@H]1C(=O)N[C@@H](CC(N)=O)C(=O)N[C@H](C(=O)N[C@@H](Cc1ccc(O)cc1)C(N)=O)[C@@H](C)O)C(C)C)[C@@H](C)O, not restated for each compound)
2 | 73 | 27.3 | 21 nM | 0.288 nM | K([γGlu-γGlu-C20 diacid])CNTATCATQRLAEFLRHSSPNFGAIPSSTNVGPHTY-NH2 (disulfide 2-7 (inferred), not restated for each compound)
3 | 74.7 | 22.6 | 33.5 nM | 0.449 nM | K([γGlu-γGlu-C20 diacid])CNTATCATQRLAEFLRHSSPNFGAILSSTPVGPETY-NH2 (disulfide 2-7 (inferred), not restated for each compound)
4 | 137 | 48.6 | 52.4 nM | 0.381 nM | K([γGlu-γGlu-C20 diacid])CNTATCATQRLANFLRHSSPNFGAIPSSTPVGPRTY-NH2 (disulfide 2-7; N-terminus assumed; SMILES CC[C@H](C)[C@H](NC(=O)[C@H](C)NC(=O)CNC(=O)[C@H](Cc1ccccc1)NC(=O)[C@H](CC(N)=O)NC(=O)[C@@H]1CCCN1C(=O)[C@H](CO)NC(=O)[C@H](CO)NC(=O)[C@H](Cc1c[nH]cn1)NC(=O)[C@H](CCCNC(=N)N)NC(=O)[C@H](CC(C)C)NC(=O)[C@H](Cc1ccccc1)NC(=O)[C@H](CC(N)=O)NC(=O)[C@H](C)NC(=O)[C@H](CC(C)C)NC(=O)[C@H](CCCNC(=N)N)NC(=O)[C@H](CCC(N)=O)NC(=O)[C@@H](NC(=O)[C@H](C)NC(=O)[C@@H]1CSSC[C@H](NC(=O)[C@@H](N)CCCCNC(=O)CC[C@H](NC(=O)CC[C@H](NC(=O)CCCCCCCCCCCCCCCCCCC(=O)O)C(=O)O)C(=O)O)C(=O)N[C@@H](CC(N)=O)C(=O)N[C@@H]([C@@H](C)O)C(=O)N[C@@H](C)C(=O)N[C@@H]([C@@H](C)O)C(=O)N1)[C@@H](C)O)C(=O)N1CCC[C@H]1C(=O)N[C@@H](CO)C(=O)N[C@@H](CO)C(=O)N[C@H](C(=O)N1CCC[C@H]1C(=O)N[C@H](C(=O)NCC(=O)N1CCC[C@H]1C(=O)N[C@@H](CCCNC(=N)N)C(=O)N[C@H](C(=O)N[C@@H](Cc1ccc(O)cc1)C(N)=O)[C@@H](C)O)C(C)C)[C@@H](C)O, not restated for each compound)
5 | 240 | 280 | 223 nM | 0.93 nM | K([γGlu-γGlu-C20 diacid])CNTATCATQRLADFLRHSSPNFGAIPSSTNVGPRTY-NH2 (disulfide 2-7, not restated for each compound; also called compound 130)
6 | 98.5 | 49.8 | 31.9 nM | 0.324 nM | K([γGlu-γGlu-C20 diacid])CNTATCATQRLADFLRHSSPNFGAIPSSTNVGPETY-NH2 (disulfide 2-7, not restated for each compound)
7 | 159 | 29.1 | 498 nM | 3.14 nM | K([γGlu-γGlu-C20 diacid])CNTATCATQRLAEFLRHSSPNFGAIPSSTNVGHETY-NH2 (disulfide 2-7; N-terminus assumed; SMILES CC[C@H](C)[C@H](NC(=O)[C@H](C)NC(=O)CNC(=O)[C@H](Cc1ccccc1)NC(=O)[C@H](CC(N)=O)NC(=O)[C@@H]1CCCN1C(=O)[C@H](CO)NC(=O)[C@H](CO)NC(=O)[C@H](Cc1c[nH]cn1)NC(=O)[C@H](CCCNC(=N)N)NC(=O)[C@H](CC(C)C)NC(=O)[C@H](Cc1ccccc1)NC(=O)[C@H](CCC(=O)O)NC(=O)[C@H](C)NC(=O)[C@H](CC(C)C)NC(=O)[C@H](CCCNC(=N)N)NC(=O)[C@H](CCC(N)=O)NC(=O)[C@@H](NC(=O)[C@H](C)NC(=O)[C@@H]1CSSC[C@H](NC(=O)[C@@H](N)CCCCNC(=O)CC[C@H](NC(=O)CC[C@H](NC(=O)CCCCCCCCCCCCCCCCCCC(=O)O)C(=O)O)C(=O)O)C(=O)N[C@@H](CC(N)=O)C(=O)N[C@@H]([C@@H](C)O)C(=O)N[C@@H](C)C(=O)N[C@@H]([C@@H](C)O)C(=O)N1)[C@@H](C)O)C(=O)N1CCC[C@H]1C(=O)N[C@@H](CO)C(=O)N[C@@H](CO)C(=O)N[C@H](C(=O)N[C@@H](CC(N)=O)C(=O)N[C@H](C(=O)NCC(=O)N[C@@H](Cc1c[nH]cn1)C(=O)N[C@@H](CCC(=O)O)C(=O)N[C@H](C(=O)N[C@@H](Cc1ccc(O)cc1)C(N)=O)[C@@H](C)O)C(C)C)[C@@H](C)O, not restated for each compound)
